The values below come from US20250034594A1, “RNA-GUIDED GENOME RECOMBINEERING AT KILOBASE SCALE” (THE BOARD OF TRUSTEES OF THE LELAND STANFORD JUNIOR …, priority 2021, published 2025).

Holding throughout (format): cell-based
In one test the test system is gene editing with Cas9. The test is described as follows: Screen of 322 new SSAP proteins, gene editing activity with Cas9 (Table 5). Also on record: Cas9 with SSAP activity: scale not given here. Put shortly:
(§1)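 First, 322 new single-strand annealing proteins are identified from sequences. Next they are synthesized. Finally each is assayed for editing in combination with Cas9 and, separately, dCas9.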

In the next test the test system is gene editing with dCas9. As to the kind of experiment: Screen of 322 new SSAP proteins, gene editing activity with dCas9 (Table 5). On the set-up: dCas9 with SSAP activity: scale not given here. Put shortly:
as §1

The test system of test [1] is gene editing with Cas9 and dCas9. The test is described as follows: Screen of 322 new SSAP proteins, activity across all experiments (Cas9 and dCas9, Table 5). On the set-up: scale not given here. Put shortly:
as §1

B1: SSAP_179: SEQ ID NO: 348; Acetoanaerobium noterae (protein, listed as Acetoanaerobium noterae)
chain: SNLKNELAKKANNSVTDGNKEPQTIKDWIKVMEPAIKKALPSVITPERFTRMALTAISVNPKLAECTPKSFMGSLMNAAQLGLEPNTPLGQAYLIPYKNKGNMEVQFQIGYKGLIELAYRSGEFANIYAKEVFENDEFEYEFGLEPVLKHKPASGNRGEVIAYYAVFKLTNGGFGFEVMSKEDITNHAKTYSQAYSSSYSPWSKNFDEMAKKTVLKKVLKYAPIKVEFVKQIVQDSTIKTEINSDMTEVESQNVFEAEETDYEVIDQEETK
For the molecule B1, in the test on gene editing with Cas9, the “Cas9 with SSAP activity” value is −4.285 and the “Cas9 with SSAP activity (normalized)” value is listed as −0.748. For the same molecule, in the test on gene editing with dCas9, the “dCas9 with SSAP activity” value is on record as −6.840 and the “dCas9 with SSAP activity (normalized)” value is −1.230. The “Activity across all experiments” value in test [1] was −5.563.

B2: SSAP_148: SEQ ID NO: 317; Corynebacterium liangguodongii (protein, listed as Corynebacterium liangguodongii)
chain: KDLETRMAANQQPAQQRPTTLADQIRGMEQQFALAMPKGAEASQLVRDALTALRQAPKLAQCTPQSVLGSLMTCAQLGLRPGVLGHAYLIPFYDRRAGGLVAQLVIGYQGLVELAHRSGQIKSLIARTVYENDVFDVDYGLEDKLVHKPYMGGDKGQPIAYYAVAKFTTGGHAFYVMSHPEMLDYRARFAKSAERGPWVDNFEAMALKTCVRQLSKWMPKSTELATAIAADESVRVDLTPDAINYPEHVDGEVVDAQGTTEDTAGEGEQSA
B2: in the test on gene editing with Cas9, the “Cas9 with SSAP activity” value is −3.731 and the “Cas9 with SSAP activity (normalized)” value is listed as −0.574. Moreover, in the test with gene editing with dCas9, the “dCas9 with SSAP activity” value is given as −6.656 and the “dCas9 with SSAP activity (normalized)” value is listed as −1.610. Moreover, in test [1], the “Activity across all experiments” value is on record as −5.193.

B3: SSAP_281: SEQ ID NO: 450; Leucobacter luti (protein, listed as Leucobacter luti)
chain: SDLSQAAVAVKKSKTVEDYLTEYEPQFQRALGKSMDAAKFSQDALTAIKQTPQLGQADLQTLFGSLFLAAQLKLPVGGPLAQFHLTPRKRGDKLEVLPIIGFGGYVQLIMNTGLYSKVGAFLIYEKDYFDEGANSERGEFYDFKKSRGDRGPVVGVIAYVKLKGFDESQYVFLDADTIRSRHRPRYWEKTPWGSDEGEMFKKTGVRVLQKLLPKSVEAAPLALAADADQATVRKVDGIEDLTIQHDVVDAEVVPDGVPV
Regarding B3, in the test on gene editing with Cas9, the “Cas9 with SSAP activity” value is −1.121 and the “Cas9 with SSAP activity (normalized)” value is listed as −0.672. Further, in the test with gene editing with dCas9, the “dCas9 with SSAP activity” value is given as −6.188 and the “dCas9 with SSAP activity (normalized)” value was −0.973. In addition, the “Activity across all experiments” value in test [1] is on record as −3.655.

B4: SSAP_127: SEQ ID NO: 296; Solibacillus sp. R5-41 (protein, listed as Solibacillus sp.)
chain: ATSNELKKQAQGQVTAKPTTPEGSLNALLKKMGPEIQRALPKHMDADRIARIALTAVRTTPKLLECDQLSFVAALMQSAQLGVEPNTGLGQAYLIPYGGKVQFQLGYKGLIDLAVRSGQYKAIYAHEVYADDEFSFAYGLHKDLVHVPSANPSGDPIGYYAVYHLKNGGYDFVYWTRERIDIHSKAFSQAVQKGWTSPWKTNYDAMAKKTVLKEVLKYAPKSIEMQKVVEADETIKNEVAPDMSNVIDVTDYSILEDPQDVTDAQ
As to B4, in the test on gene editing with Cas9, the “Cas9 with SSAP activity” value turned out to be 0.427 and the “Cas9 with SSAP activity (normalized)” value was 0.447. For the same molecule, in the test on gene editing with dCas9, the “dCas9 with SSAP activity” value was −6.524 and the “dCas9 with SSAP activity (normalized)” value is −1.210. Further, the “Activity across all experiments” value in test [1] is −3.048.

B5: SSAP_200: SEQ ID NO: 369; Streptomyces (multispecies) (protein, listed as Streptomyces sp.)
chain: SQISNALATRDQGPAAQIEQYRDEYAALVPSHVNADQWVRLAVGAVRGDEKLMEAAQNDIGLFLREMKTAARLGLEPGTEQFYLTPRKSKPHGGRKVIKGIVGYQGIVELIYRAGAASTVIVEAVRENDTFRYVPGRDDRPVHEIDWFANDRGPLVGVYAYAVMKDGAVSKVVVLNRSRVMEFKAKSDSKHSEYSPWNTNEEAMWLKSAVRQLAKWVPTSAEYRRDQLLAHTETADSVVASVSTAPLPPQPSALDDADPDDDGPIDAELVD
As to B5, in the test on gene editing with Cas9, the “Cas9 with SSAP activity” value was −2.468 and the “Cas9 with SSAP activity (normalized)” value is on record as −0.973. Also, in the test with gene editing with dCas9, the “dCas9 with SSAP activity” value is on record as −6.514 and the “dCas9 with SSAP activity (normalized)” value is listed as −1.107. The “Activity across all experiments” value in test [1] is −4.491.

B6: SSAP_139: SEQ ID NO: 308; Butyrivibrio sp. FCS006 (protein, listed as Butyrivibrio sp.)
chain: PYLFGGQMKEQEIKNQLAAKAVETTNPKLSKNMNIADLIKAIEPEIKKALPTVITPERFTRIALSALNTTPKLAECSQMSFLAALMNAAQLGLEVNSPLGQAYLIPYNNKGKLECQFQIGYKGMLGLAYRNPEIQTIQAQVVYENDDFKYELGLDSKLYHKPSLSDRGKVRCYYALYKLRNGGYGFEVMSRRDVEEYAKRYSKVTDSLYSPWANNFDSMAKKTVIKQLLKYAPLRTDLEKAMSMDESIKTRVSVDMSEVENEETFDAEVEV
In the case of B6, the “Cas9 with SSAP activity” value in the test on gene editing with Cas9 is reported as −6.481. In addition, the “dCas9 with SSAP activity” value with gene editing with dCas9 was −6.481. Further, the “Activity across all experiments” value in test [1] is −6.481.

B7: SSAP_116: SEQ ID NO: 285; Lachnoclostridium sp. An14 (protein, listed as Lachnoclostridium sp.)
chain: TDVKQELERKVGKQDSTAVRLTKNMSIPDMIKALEPEIRRALPAVLTPERFLRMALSAVNNTPKLAECTPMSFIAAMMNAAQLGLEPNTPLGQAYLIPYKNKNQLECQFQIGYKGIIDLAYRTGQMQMIQAHAVHEFDDFEYEYGLNPKLIHRPGDGNRGEITYFYGLFKLVNGGFGFEVMNREAMEAFAQQYSQSYGSQYSPWVKNFEDMAKKTVIKKALKYGPVKAEFQKAISMDETIKTEIAVDMTEVQNEESE
B7: in the test on gene editing with Cas9, the “Cas9 with SSAP activity” value is on record as −0.307 and the “Cas9 with SSAP activity (normalized)” value is given as −0.056. Besides, the “dCas9 with SSAP activity” value in the test on gene editing with dCas9 is listed as −6.481. Besides, the “Activity across all experiments” value in test [1] is recorded as −3.394.

B8: SSAP_2: SEQ ID NO: 173 (protein)
chain: ATNESLKNQLTTKKETGLGSAGNTIKGLMNSPAIKKRFEEVLKQRAPQYMSSIVNLVNSDINLKKCDQMSVVASCMVAATLDLPVDKNLGYAWVVPYGNKAQFQLGYKGYVQLALRTGQYKSINVIEIHEGELIDWNPLTEELKIDFSKKESDAVIGYAGYFELLNGFKKSTYWTKEQITKHKNKFSKSDFGWKKDFDAMARKTVLRNMLSKWGILSIEMQNAYTADQGIIKNEIMETGEVKENIEYIEADFESYEDNSIEEGGANE
B8: in the test with gene editing with Cas9, the “Cas9 with SSAP activity” value is given as −7.779 and the “Cas9 with SSAP activity (normalized)” value is on record as −1.250. Further, in the test with gene editing with dCas9, the “dCas9 with SSAP activity” value is given as −6.114 and the “dCas9 with SSAP activity (normalized)” value was −1.204. Further, the “Activity across all experiments” value in test [1] is −6.946.

B9: SSAP_195: SEQ ID NO: 364; Isoptericola dokdonensis (protein, listed as Isoptericola dokdonensis)
chain: TQDLATAIADQQPAQRRTAFDLVESMRGELHKALPEHASIDNFLRLALTELKMNPQLGNCSGESLLGALMTAARVGLEVGGPLGQFYLTPRRLKRDGWAVVPIVGYRGLITLARRAGVGQVNAVVVHEGDTFREGASSERGFFFDWEPAVERGKPVGALAAARLAGGDVQHRYLSLAEVHERRDRGGFKDGSNSPWATDYDAMVRKTALRALVPLLPQSTALSFAVQADEQVQRYDAGDIDIPALDETDTEDTK
Take B9: in the test on gene editing with Cas9, the “Cas9 with SSAP activity” value is −1.761 and the “Cas9 with SSAP activity (normalized)” value was −1.896. For the same molecule, in the test with gene editing with dCas9, the “dCas9 with SSAP activity” value is given as −6.406 and the “dCas9 with SSAP activity (normalized)” value is listed as −0.956. In addition, the “Activity across all experiments” value in test [1] is listed as −4.084.

B10: SSAP_212: SEQ ID NO: 381; Streptomyces sp. NRRL S-1824 (protein, listed as Streptomyces sp.)
chain: SEISNAIATRDQGPAAQIEAYRDEYAALVPSHINVDQWVRLAAGAIRGNEDLMEAARNDIGVFLRELKTAARLGLEPGTEQFYLTARKSKAHGYALIIKGIVGYQGIVELIYRAGAVSSVIVEAVRANDTFSYVPGRDDRPIHEIDWFGGDRGPLVGVYAYAVMKDGAVSKVVVMNHKRVMEIKARSDSKNSQYSPWNTDEESMWLKSAIRQLAKWVPTSAEYKSEQLRAHAEAIGELASVASAPLPPQPSVLDDVDPDDEGPIEGELVD
B10: in the test on gene editing with Cas9, the “Cas9 with SSAP activity” value amounted to 0.448 and the “Cas9 with SSAP activity (normalized)” value is listed as 0.210. Besides, in the test with gene editing with dCas9, the “dCas9 with SSAP activity” value is given as −6.577 and the “dCas9 with SSAP activity (normalized)” value is recorded as −1.182. Besides, the “Activity across all experiments” value in test [1] is −3.064.

B11: SSAP_136: SEQ ID NO: 305; Corynebacterium striatum (protein, listed as Corynebacterium striatum)
chain: GTNLEQRMAANNAPAKQNRPVTLADQIRSMESQFQLAMPKGMEAQQLVRDALTCLRQTPKLAECTPQSVLGGLMTCSQLGLRPGVLGHAYLLPFWDRKQGGMVAQLVVGYRGLVELAHRSGQIQSLIARTVYENDHFDVDYGLDDKLVHKPCMNGPKGNPIAYYAVAKFTTGGHSFIVMSKDEMLAYRDEFAKAKNKQGEVFGPWADNFDAMAHKTCVRQLAKWMPSSTDLDRGIAADETVRVDLSESALDYPQHVDGEVVDSKPAEDEAA
B11: in the test on gene editing with Cas9, the “Cas9 with SSAP activity” value is reported as −0.594 and the “Cas9 with SSAP activity (normalized)” value is recorded as −0.262. Besides, in the test on gene editing with dCas9, the “dCas9 with SSAP activity” value was −6.395 and the “dCas9 with SSAP activity (normalized)” value is reported as −0.952. For the same molecule, the “Activity across all experiments” value in test [1] is recorded as −3.495.

B12: SSAP_53: SEQ ID NO: 222 (protein)
chain: STALTTLTSQLSQRFKLDGGEELLTTLKQTAFKGQVTDAQMTALLIVANQFGLNPWTKEIYAFPDKNGGIVPVVGVDGWARIINEHPQFDGMDFEMDGEQSCTCVIYRKDRTRPIRITEYMAECKKTGGGPWQSHPRRMLRHKAMIQCARMAFGFGGISDEDDAERIREKDITPQAEVVPKALEPYPADKFEENFEQWKSLIESGRRSADDVIAKIKSRNTMTDEQETRLRACGGEEGKTYENA
For the molecule B12, in the test with gene editing with Cas9, the “Cas9 with SSAP activity” value was −1.644 and the “Cas9 with SSAP activity (normalized)” value is recorded as −1.327. For the same molecule, in the test with gene editing with dCas9, the “dCas9 with SSAP activity” value worked out at 0.088 and the “dCas9 with SSAP activity (normalized)” value was 0.036. For the same molecule, the “Activity across all experiments” value in test [1] is −0.778.
